The results in this text go back to paper doi:10.1101/2023.02.25.530030.

As usually defined, the Kd is the constant that tells how readily two partners part at equilibrium. Lower therefore signals tighter binding.

The assay addresses human Mdm2 (1-125) (human). Kind of assay: fluorescence polarisation.

Sequence of human Mdm2 (1-125) (human) (Q00987 1-125): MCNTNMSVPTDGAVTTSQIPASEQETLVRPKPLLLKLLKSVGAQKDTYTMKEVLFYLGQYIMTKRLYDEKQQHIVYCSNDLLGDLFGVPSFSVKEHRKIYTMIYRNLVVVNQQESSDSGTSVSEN

The substance “azide-ATSP-7041 (MP-081) with Cba10 substituted with Leu (peptide)” returned a Kd of 56 nM.
Consider azide-ATSP-7041 (MP-081) E5P (peptide), for which the Kd was determined as 7800 nM.
Turning to azide-ATSP-7041 (MP-081) (peptide), the Kd was found to be 5 nM.
To “MP-444: Ac-K(N3)-TF(X)EYWAQ(Cba)(X)EAFAAF-NH2 (peptide)” belongs 1.5 nM; to “azide-ATSP-7041 (MP-081) with Cba10 substituted with Ala (peptide)”, 115 nM.
To “azide-ATSP-7041 (L1N, E5N, A8N, S12N, A13N, A14N) (peptide)” belongs 15 nM; to “MP-793 (all-D di-alkyne stapled analog of ^dPMI-δ(5-12 staple)) (peptide)”, below 1 nM; to “azide-ATSP-7041 (L1D, E5D, A8D) (peptide)”, 5 nM.
